In the test the target is SARS-CoV-1 (Sino 1-11) RBD, His-tagged (SARS-CoV-1).

Substance WRAIR-2063 (human IgG1) (antibody) registered an IC50 of neutralization of SARS-CoV-1 (Sino 1-11) pseudovirus of 0.095 µg/mL.

The record behind these values is article PMC8642242.
